The text below walks through data of patent publication US20200164071A1 (GENSUN BIOPHARMA, published 2020).

A word on the IC50: it is the concentration that inhibits the measured activity by half. A higher IC50 goes with a need for much substance. What is called Kd is the constant that tells how readily two partners part at equilibrium. Usually koff stands for a measure of how fast the partners let go of each other. One may read the kon as the rate constant with which the complex forms.

For experiment [1], the target named is T1, human TIGIT on CHO-K1 cells (human, UniProt Q495A1 23-244).
T1 construct: also called hu TIGIT; TIGIT+CHO-K1 cells
T1 sequence: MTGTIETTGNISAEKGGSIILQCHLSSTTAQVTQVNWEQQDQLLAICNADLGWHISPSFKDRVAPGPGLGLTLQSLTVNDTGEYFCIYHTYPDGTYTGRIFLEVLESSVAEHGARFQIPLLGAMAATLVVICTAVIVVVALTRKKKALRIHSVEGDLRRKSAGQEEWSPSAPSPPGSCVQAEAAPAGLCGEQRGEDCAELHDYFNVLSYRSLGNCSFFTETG
Description: flow cytometry competition with biotinylated hPVR-mIg on CHO-K1 cells expressing human TIGIT. How it is done:
The cells were washed 2 times before staining with PE streptavidin (BioLegend) for 20 min at 4 C. The cells were then washed, resuspended in 30 μl 7 AAD solution, and 35 μl of 10% neutral buffered formalin solution was added. The cells were then incubated for 15 min. Flow cytometry was performed and IC50 was calculated using iQue intellicyt system.

The target in experiment [2] is T2, cyno PD-1 on CHO-K1 cells (cyno).
T2 construct: whole, on cells; also called cyno hu PD-1; Cyno PD-1 transfected CHO-K1 cells
The experiment can be described thus: flow cytometry blocking assay of Example 11, PD-L1 on cyno PD-1 CHO-K1 cells; cyno taken from the legend paragraph 42 ('cyno-hu'), while Example 11 speaks of human PD-1 and human PD-L1 for this figure. How it is done: (§1) Human or Cyno PD-1 transfected CHO-K1 cells were washed with FACS buffer (0.5% BSA 2 mM EDTA in PBS) and re-suspended at a concentration of 10⁶ cells/ml. […] The cells were then washed and re-suspended in 30 μl 7 AAD solution; 35 μl 10% neutral buffered formalin solution was then added and incubated for 15 mins. before analysis using the iQue intellicyt system.
(In general: A flow cytometer gives signals particle by particle.)

The target of experiment [3] is T3, human PD-1 on CHO-K1 cells (human, UniProt Q15116 25-288).
T3 construct: also called Human PD-1 transfected CHO-K1 cells
The experiment can be described thus: flow cytometry blocking assay: FITC human PD-L1-Fc on human PD-1 CHO-K1 cells (Example 11; the legend paragraph 42 calls it binding to hu PD-L1). Here is the method: as §1

Experiment [4] deals with T1, human TIGIT on CHO-K1 cells. The experiment can be described thus: flow cytometry blocking assay: PVR (hPVR-mIg, m14, by Examples 4 and 6) on human TIGIT CHO-K1 cells (Example 16); title: Blocking PVR binding to TIGIT.
In experiment [5] the target is T3, human PD-1 on CHO-K1 cells. Description: flow cytometry blocking assay: FITC human PD-L1-Fc on human PD-1 CHO-K1 cells (Examples 11 and 16); title: Blocking PD-L1 binding to PD-1. Here is the method:
as §1

For experiment [6], the target named is T4, His tagged human PD-1 protein (human, UniProt Q15116 25-170, limits assumed).
T4 construct: also called huPD-1-His; not shown: His tag
The experiment can be described thus: bio-layer interferometry (Octet RED96), antibody on anti-human IgG capture biosensors, His tagged human PD-1 as analyte, 1:1 global fit (Example 12). Here is the method: […] was carried out using the Octet RED96 system (ForteBio Octet RED96 System) to characterize the binding kinetics of antibodies against His tagged human PD-1 protein. 20 nM of antibody was loaded onto the anti-human IgG capture biosensors. Association of analyte (His tagged human PD-1 protein) was observed by placing the biosensors in wells containing 2 or 3 fold serial dilution of analytes (72 nM being the highest concentration) for 5 mins. Dissociation was measured after transfer of the biosensors into kinetic buffer alone and monitoring of the interferometry signal for 10 minutes. The observed on and off rates (Ka and Kd) were fit using a 1:1 binding global fit model comprising at least 5 concentrations tested, and the equilibrium binding constant KD was then calculated.

The target of experiment [7] is T3, human PD-1 on CHO-K1 cells. The experiment can be described thus: flow cytometry blocking assay: FITC human PD-L1-Fc on human PD-1 CHO-K1 cells (Example 11). Here is the method:
as §1

Where a chain is given by its changes, count along the chain named.

T3 sequence (Q15116 25-288): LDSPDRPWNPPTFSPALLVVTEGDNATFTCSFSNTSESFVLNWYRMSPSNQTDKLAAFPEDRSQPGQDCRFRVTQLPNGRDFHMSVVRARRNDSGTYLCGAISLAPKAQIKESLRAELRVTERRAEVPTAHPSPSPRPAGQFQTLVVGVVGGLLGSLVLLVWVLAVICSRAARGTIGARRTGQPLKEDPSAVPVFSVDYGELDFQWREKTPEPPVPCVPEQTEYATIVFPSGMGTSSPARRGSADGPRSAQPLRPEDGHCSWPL
T4 sequence (Q15116 25-170 limits assumed): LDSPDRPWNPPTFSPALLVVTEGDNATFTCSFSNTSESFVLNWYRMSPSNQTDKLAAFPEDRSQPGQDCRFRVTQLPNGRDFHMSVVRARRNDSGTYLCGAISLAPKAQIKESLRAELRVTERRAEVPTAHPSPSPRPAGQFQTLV

B1: T-02 (antibody, V domains shown)
VH: QVKLQESGPGLVKPSQTLSLTCTVTGYSITSDYAWNWIRQPPGKGLEWIGYITYSGGTSYNPSLKSRVTISVDTSKNQFSLKLSSVTAADTAVYSCARRQIGLGFTYWGQGTLVTVSA
VL: DIQMTQSPSSLSASVGDRVTIPCKASQDLSTAVAWYQQKPGKAPKLLIYSSSYRYTGVPSRFSGSGSGTDFTLTISSLQPEDFATYYCQQSYSTPQQHYSTPWTFGEGTKLEIK
notes: Anti-human TIGIT monoclonal antibody from mouse hybridoma; also called anti-hu TIGIT mab T-02
Regarding B1, the half-inhibitory concentration (IC50) in experiment [1] is 0.35 to 0.71 nM.

B2: T-05 (antibody, V domains shown)
VH: EVQLKQSGAEVKKPGATVKISCKVSGYTFTDQAIHWVQQAPGKGLEWMGYIYPRDGSTKYNETFKGRVTITADTSTDTAYMELSSLRSEDTAVYFCARGMLRWFAYWGQGTLVTVSS
VL: DIQMTQSPSSLSASVGDRVTITCKASQDVSTAVAWYQQKPGKAPKLLIYSASYRYTGVPSRFSGSGSGTDFTLTISSLQPEDFATYYCQQHYSTPLTFGAGTKLELK
notes: Anti-human TIGIT monoclonal antibody from mouse hybridoma; also called anti-hu TIGIT mab T-05
Turning to B2, the half-inhibitory concentration (IC50) in experiment [1] lay in the range of 0.2 to 0.46 nM.

B3: T-03 (antibody, V domains shown)
VH: B2 VH with K5V, Q32H, A33T, I51F, T63K, F95Y, R98T, Y106D, V113I, S117V
VL: B2 VL with A32T
notes: Anti-human TIGIT monoclonal antibody from mouse hybridoma; also called anti-hu TIGIT mab T-03
In turn, B3 came in with an IC50 in experiment [1] of 0.26 to 0.52 nM.

B4: T-07 (antibody, V domains shown)
VH: EVQLQESGPGLVKPSDTLSLTCAVSGYSITSDSAWNWIRQPPGKGLEWIGYITYSGSTNYNPSLRSRVTMSVDTSKNQFSLKLSSVTAVDTAVYYCTRRQVGLGFAYWGQGTLVTVSA
VL: B2 VL with Y55F, V58A, A84G, T85I, Q90H, L96W, A100G, L106F
notes: Anti-human TIGIT monoclonal antibody from mouse hybridoma; also called anti-hu TIGIT mab T-07
For B4, the concentration for half-maximal inhibition (IC50) in experiment [1] turned out to be 0.5 nM.

B5: T-06 (antibody, V domains shown)
VH: B1 VH with K3Q, T25S, Y27G, I29V, T30S, G57S, S95Y, I101V, T106A
VL: B2 VL with R54H, L96W, A100G, L106I
notes: Anti-human TIGIT monoclonal antibody from mouse hybridoma; also called anti-hu TIGIT mab T-06
The molecule B5 gave a half-maximal inhibitory concentration (IC50) in experiment [1] of 0.84 nM.

B6: PD-06 (antibody, V domains shown)
VH: QVQLVQSGAEVKKPGASVKVSCKASGYTFTSYYIHWVRQAPGQRLEWMGWIFPGSGNSKYNENFKGRVTITRDTSASTAYMELSSLRSEDTAVYFCASETYDYGDYWGQGTLVTVSS
VL: DIQMTQSPSSLSASVGDRVTITCKASQNVGTNVAWYQQKPGKAPKSLIYSASYRYSGVPSRFSGSGSGTDFTLTISSLQPEDFATYFCQQYYSYPYTFGQGTKLEIK
notes: also called anti-PD-1 mab PD-06
In the case of B6, the concentration for half-maximal inhibition (IC50) in experiment [2] is 2.14 nM; in experiment [3] it was 0.65 nM.

B7: TP-M9T10P1 (TP-93) (bispecific antibody, human IgG4 S228P, kappa)
heavy: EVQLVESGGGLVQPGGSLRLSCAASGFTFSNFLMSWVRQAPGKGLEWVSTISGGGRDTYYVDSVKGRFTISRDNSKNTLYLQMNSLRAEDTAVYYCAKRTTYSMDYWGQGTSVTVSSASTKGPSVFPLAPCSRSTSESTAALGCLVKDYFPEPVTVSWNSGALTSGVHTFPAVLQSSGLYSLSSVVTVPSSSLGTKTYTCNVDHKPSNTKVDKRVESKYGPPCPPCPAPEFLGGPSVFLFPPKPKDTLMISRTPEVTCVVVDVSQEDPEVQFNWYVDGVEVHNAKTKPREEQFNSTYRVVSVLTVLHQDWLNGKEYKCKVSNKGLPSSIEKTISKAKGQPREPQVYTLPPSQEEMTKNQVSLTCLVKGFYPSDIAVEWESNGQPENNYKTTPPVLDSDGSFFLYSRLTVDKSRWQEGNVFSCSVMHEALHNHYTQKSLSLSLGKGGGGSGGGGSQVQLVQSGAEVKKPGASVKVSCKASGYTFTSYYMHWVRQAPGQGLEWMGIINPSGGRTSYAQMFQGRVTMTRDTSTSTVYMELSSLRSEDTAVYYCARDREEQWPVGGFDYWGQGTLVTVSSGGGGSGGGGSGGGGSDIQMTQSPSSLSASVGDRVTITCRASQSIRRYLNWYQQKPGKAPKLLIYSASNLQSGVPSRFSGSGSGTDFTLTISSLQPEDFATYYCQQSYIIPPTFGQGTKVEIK
light: DIQMTQSPSSVSASVGDRVTITCLASQTIGTWLAWYQQKPGKAPKLLIDAATSLADGVPSRFSGSGSGTDFTLTISSLQPEDFATYYCQQFYSIPWTFGGGTKLEIKRTVAAPSVFIFPPSDEQLKSGTASVVCLLNNFYPREAKVQWKVDNALQSGNSQESVTEQDSKDSTYSLSSTLTLSKADYEKHKVYACEVTHQGLSSPVTKSFNRGEC
notes: Anti-TIGIT x anti-PD-1; The tie is in embodiment wording ('about 80% to about 100% homologous to')
B7: the results for the IC50 in experiment [4] and in experiment [5] were 0.4 nM and 1.4 nM, respectively.

B8: TP-M8T10P1 (TP-83) (bispecific antibody)
heavy: QVQLVQSGAEVKKPGASVKVSCKASGYTFTSYYMHWVRQAPGQGLEWMGIINPSGGRTSYAQMFQGRVTMTRDTSTSTVYMELSSLRSEDTAVYYCARDREEQWPVGGFDYWGQGTLVTVSS
light: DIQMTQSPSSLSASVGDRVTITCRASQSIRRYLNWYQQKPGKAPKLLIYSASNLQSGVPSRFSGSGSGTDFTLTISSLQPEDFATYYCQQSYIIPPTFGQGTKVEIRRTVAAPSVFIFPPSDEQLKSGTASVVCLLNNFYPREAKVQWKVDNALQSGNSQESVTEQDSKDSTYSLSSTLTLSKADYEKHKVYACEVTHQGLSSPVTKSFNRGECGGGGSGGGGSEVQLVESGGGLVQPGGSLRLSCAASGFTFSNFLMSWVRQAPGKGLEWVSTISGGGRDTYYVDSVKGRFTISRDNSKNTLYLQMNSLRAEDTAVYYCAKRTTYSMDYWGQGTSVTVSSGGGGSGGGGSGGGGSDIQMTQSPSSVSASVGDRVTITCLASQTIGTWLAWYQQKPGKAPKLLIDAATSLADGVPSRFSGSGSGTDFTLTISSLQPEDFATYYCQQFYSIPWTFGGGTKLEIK
notes: as for B7
For the molecule B8, the values for the IC50 in experiment [4] and in experiment [5] were 0.21 nM and 1.8 nM, respectively.

B9: T-09 (antibody, V domains shown)
VH: QVTLKESGPTLVKPTQTLTLTCTFSGFSLSTFAMGVGWIRQPPGKALEWLAHIWWDDDKYYNPALKSRLTITKDTSKNQVVLTMTNMDPVDTATYYCARMDYSYFAWFAYWGQGTLVTVSS
VL: QAVVTQEPSLTVSPGGTVTLTCRSSTGAVTTSNYANWVQQKPGQLFRGLIGGTNNRAPWVPARFSGSLIGDKAALTLSGVQPEDEAEYFCALWYSNHWVFGGGTKLTVL
notes: Anti-human TIGIT monoclonal antibody from mouse hybridoma; also called anti-hu TIGIT mab T-09
B9 gave an IC50 in experiment [1] of 0.36 to 0.42 nM.

B10: PD-02 mab (antibody, V domains shown)
VH: QVQLVQSGAEVKKPGASVKVSCKASDYTFTNSYLYWLRQAPGQGLEWMGGINPSNGGTNFNEKFKTRTTSTRDTSISTAYMELSRLRSDDTVVYYCTRRDYNYDGGFDSWGQGTLVTVSS
VL: DIQMTQSPSSLSASVGDRVTFTCRASSTLYSNYLHWYQQKPGKAPKLLIYRASFLASGVPSRFSGSGSGTDFTLTISSLQPEDFATYYCQQGSSIPLTFGGGTKVEIK
Turning to B10, in experiment [6], the dissociation constant (Kd) is 3.7 nM, the off-rate (koff) was determined as 0.000395 s⁻¹ and the on-rate (kon) amounted to 106000 M⁻¹ s⁻¹. In addition, 1.72 nM corresponded to half-maximal inhibition in experiment [2] (IC50). For the same molecule, in experiment [7], the IC50 turned out to be 2.05 nM. For the same molecule, the IC50 in experiment [3] is 0.54 nM.

B11: PD-04 (antibody, V domains shown)
VH: B10 VH with L34I, L37V, T68V, T97A
VL: B10 VL with T28S
notes: also called anti-PD-1 mab PD-04
For the molecule B11, the concentration for half-maximal inhibition (IC50) in experiment [2] came out at 2.15 nM; in experiment [3], 0.82 nM.

B12: TP-M10T8P5 (TP-92) (bispecific antibody, human IgG4 S228P)
heavy: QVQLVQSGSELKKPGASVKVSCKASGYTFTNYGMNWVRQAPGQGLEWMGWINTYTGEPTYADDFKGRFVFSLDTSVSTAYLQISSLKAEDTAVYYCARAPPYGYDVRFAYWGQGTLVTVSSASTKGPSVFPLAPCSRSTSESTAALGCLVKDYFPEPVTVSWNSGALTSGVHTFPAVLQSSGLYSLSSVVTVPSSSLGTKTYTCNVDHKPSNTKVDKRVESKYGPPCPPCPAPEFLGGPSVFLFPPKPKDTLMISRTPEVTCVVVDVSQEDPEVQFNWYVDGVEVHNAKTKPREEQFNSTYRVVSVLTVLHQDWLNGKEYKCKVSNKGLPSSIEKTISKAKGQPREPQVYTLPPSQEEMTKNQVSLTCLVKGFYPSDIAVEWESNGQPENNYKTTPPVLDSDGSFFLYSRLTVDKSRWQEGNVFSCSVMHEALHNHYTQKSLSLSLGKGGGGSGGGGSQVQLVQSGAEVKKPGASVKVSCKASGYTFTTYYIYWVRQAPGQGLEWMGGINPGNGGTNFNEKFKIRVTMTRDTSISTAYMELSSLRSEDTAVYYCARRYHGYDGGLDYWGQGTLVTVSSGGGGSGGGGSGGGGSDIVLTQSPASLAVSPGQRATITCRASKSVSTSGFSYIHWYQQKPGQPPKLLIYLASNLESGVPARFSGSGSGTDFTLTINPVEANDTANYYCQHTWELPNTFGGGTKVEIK
light: DVVMTQSPLSLPVTLGQPASISCRSSQSIVHSNGNTYLEWFQQRPGQSPRVLIYKVSDRFSGVPDRFSGSGSGTDFTLKISRVEAEDVGVYYCFQGSHVPWTFGRGTKLEIK
notes: as for B7
In the case of B12, the IC50 in experiment [4] is 0.4 nM.
